{
  "source": "paper PMC3316568",
  "about": "“Crystal Structure of Streptococcus pyogenes Csn2 Reveals Calcium-Dependent Conformational Changes in Its Tertiary and Quaternary Structure” (PLoS ONE, 2012)",
  "binders": {"B1": {"name": "Selenomethionyl Streptococcus pyogenes Csn2 (natural protein)", "chain": "MNLNFSLLDEPIPLRGGTILVLEDVCVFSKIVQYCYQYEEDSELKFFDHKMKTIKESEIMLVTDILGFDVNSSTILKLIHADLESQFNEKPEVKSMIDKLVATITELIVFECLENELDLEYDEITILELIKSLGVKVETQSDTIFEKCLEILQIFKYLTKKKLLIFVNSGAFLTKDEVASLQEYISLTNLTVLFLEPRELYDFPQYILDEDYFLITKNMV", "modifications": "selenomethionine (SeMet labelling)", "notes": "Csn2, CRISPR-associated protein of the Nmeni subtype (type II-A), Streptococcus pyogenes; same construct as m1, expressed as selenomethionyl protein; residues up to 220 are named for the structure; Same construct as m1 with selenomethionine; Two monomers (A, B) in the asymmetric unit; the tetramer is formed with a symmetry-related dimer; also called SeMet Csn2; selenomethionyl S. pyogenes Csn2; …"}, "B2": {"name": "Streptococcus pyogenes Csn2 (native) (natural protein)", "chain": "B1 chain", "notes": "Csn2, CRISPR-associated protein of the Nmeni subtype (type II-A), Streptococcus pyogenes; the csn2 gene cloned into pHMGWA; monomeric molecular weight printed as 26.0 kDa; residues up to 220 are named for the structure; also called Native Csn2; source: E. coli BL21 (DE3), purified (HisTrap HP, TEV cleavage, second HisTrap HP, Superdex200); not shown: His6, N-terminal, cleaved; MBP, N-terminal, …"}, "B3": {"name": "S. pyogenes CRISPR DNA 90 bp (dsDNA)", "DNA 1": "TTTTAGACAAAAATAGTCTACGAGGTTTTAGAGCTATGCTGTTTTGAATGGTCCCAAAACTGCGCTGGTTGATTTCTTCTTGCGCTTTTT", "DNA 2": "AAAAAGCGCAAGAAGAAATCAACCAGCGCAGTTTTGGGACCATTCAAAACAGCATAGCTCTAAAACCTCGTAGACTATTTTTGTCTAAAA"}, "B4": {"name": "control DNA 90 bp (ERD1 promoter) (dsDNA)", "DNA 1": "TCTTAAAACTCCACAAACATTACGGCAGTTAGAATTTAAATTTATCTTGGAATATTGTTTGTATATTATTAACAAATGTAAATTGGTGTA", "DNA 2": "TACACCAATTTACATTTGTTAATAATATACAAACAATATTCCAAGATAAATTTAAATTCTAACTGCCGTAATGTTTGTGGAGTTTTAAGA"}},
  "key": {"[1]": {"biological_target": "the molecule itself", "assay": "crystal structure; selenomethionyl Csn2, 2.2 Å, MAD; crystals at 20°C from 150 mM KCl, 4 mM DTT, 100 mM HEPES pH 7.0 with 2.3 M sodium acetate pH 7.0; no calcium added; dimer in the asymmetric unit, tetramer with the symmetry-related dimer"}, "[2]": {"biological_target": "the molecule itself", "assay": "SEC; analytical, Superdex 200 10/300 GL; 200 mM NaCl, 2 mM DTT, 10 mM Tris-HCl pH 8.0; 0.5 mL of 1.0 mg/mL Csn2; no calcium added"}, "[3]": {"biological_target": "T1, Csn2 (Streptococcus pyogenes, UniProt Q99ZV9 1-220)", "T1 sequence": "B1 chain", "assay": "EMSA; no added metal; DNA:Csn2 tetramer 1:0, 1:1, 1:10; 50 mM NaCl, 20 mM HEPES pH 7.5, room temperature, 20 min; 150 ng DNA; 10% native Tris-glycine PAGE, ethidium bromide stain", "settings": "protein: recombinant; tags: (His)6-MBP tag removed by TEV protease; chain copies: 4"}, "[4]": {"biological_target": "T1, Csn2", "assay": "EMSA; no added metal; DNA:Csn2 tetramer 1:0, 1:1, 1:10; non-specific binding; 50 mM NaCl, 20 mM HEPES pH 7.5, room temperature, 20 min; 150 ng DNA; 10% native Tris-glycine PAGE, ethidium bromide stain", "settings": "protein: recombinant; tags: (His)6-MBP tag removed by TEV protease; chain copies: 4"}},
  "data": [
    {"binder": "B1", "values": [
      {"measurement": "stoichiometry N", "setting": "[1]", "result": 4}
    ]},
    {"binder": "B2", "values": [
      {"measurement": "stoichiometry N", "setting": "[2]", "result": 4}
    ]},
    {"binder": "B3", "values": [
      {"measurement": "binding result", "setting": "[3]", "result": "binds"}
    ]},
    {"binder": "B4", "values": [
      {"measurement": "binding result", "setting": "[4]", "result": "binds"}
    ]}
  ]
}
